Assay results reported in patent US5880093A, “Use of parathormone, its biologically active fragments and correlated peptides, for the preparation of pharmaceutical compositions useful for the treatment of pregnancy” (priority 1992, dated 1999).
Entries after “also recorded” stand apart in the source; their conditions may differ.

Experiments:
uterine contractions = assay: clinical observation of pregnant women with symptoms of likely premature birth (cardiotocography, arterial pressure, heart rate); format: in vivo, human
Procedure: Three pregnant women having symptoms indicating the likelihood of premature birth have been observed while in their 34-36th week of pregnancy. […] Arterial pressure, heart rate and skin coloring were evaluated. The women were clearly aware of the contractions and of the pain caused by such contractions.
The women were administered 100 Units of synthetic Parathormone 1-34 (two vials according to Examples 1 and 2) by rapid infusion (10 minutes), diluted in 200 cc of physiological solution. Two blood samples were taken before and after infusion and the serum was frozen and stored at -20° C. for the evaluation of the mineral elements (calcium, phosphorous, magnesium, alkaline phosphatase, parathormone, progesterone, estradiol).

human myometrium = assay: in vitro motility of fragments of myometrium of pregnant women, contraction induced by oxytocin; conditions: PTH 8.5×10^-8 M, oxytocin 1×10^-2 U, myometrium taken during Caesarean birth, FIG. 2 vs FIG. 1
Description: Experimental Trials on the in vitro motility of fragments of myometrium of pregnant women

[1] = tested on: contractions induced by PGF2alpha; assay: contractions induced by PGF2alpha; format: in vivo; conditions: PGF2alpha 1 mg/kg; PTH 4×10^-4 mg/Kg; FIG. 4 vs FIG. 3
Description: Furthermore. Parathormone, has also been essayed for the contractions induced by PGF2alpha according to the technique described in the British Journal of Pharmacology 93: 185-191 (1988).

rat uterus = conditions: in vitro, studies reported in the literature; cited from earlier work
[2] = three pregnant women, 34-36th week, 100 Units by rapid infusion (10 minutes)

Molecule: Parathormone 1-34
- arterial pressure and heart rate of the mother (uterine contractions; 100 Units by rapid infusion): did not show variations of worthwhile note
- patient-reported uterine contractions and pain caused by the contractions (uterine contractions; 100 Units by rapid infusion, pain particularly in the lumbar-sacral region): immediate disappearance of uterine contractions and of pain
- fetal heart beat (uterine contractions; cardiotocography, 40 minutes monitoring, 100 Units by rapid infusion, FIG. 5): did not show variations and remained within the normal limits
- cardiotocography waves referring to uterine contractions (uterine contractions; period of monitoring 40 minutes, 100 Units by rapid infusion, FIG. 5): disappearance of waves referring to uterine contractions
- efficacy on uterine contractility (uterine contractions; [2]): efficacy of Parathormone on uterine contractility
- side effects in mother and fetus (uterine contractions; [2]): no side effects have been noted either in the mother or the fetus; also recorded: no side effects were noted in relation to the infusion of the drug

B1: Parathormone (protein, UniProt P01270 32-115, looked up)
Parathyroid hormone: SVSEIQLMHNLGKHLNSMERVEWLRKKLQDVHNFVALGAPLAPRDAGSQRPRKKEDNVLVESHEKSLGEADKADVNVLTKAKSQ
modifications: Parathyroid hormone
notes: intact (whole) human parathyroid hormone
- effect on contraction of human myometrium induced by oxytocin (human myometrium): net inhibitory effect
- effect on contraction of human myometrium induced by oxytocin (human myometrium; listed as intact human parathormone): inhibitory effect (flat trace)
- effect on contractions induced by PGF2alpha (intensity and duration) [1]: clear inhibitory effect both in terms of intensity and duration
- action on contractility of the rat uterus induced by oxytocin, acetylcholine and prostaglandin (rat uterus): inhibitory action
